EP4772535A1 (Chia Tai Tianqing Pharmaceutical Group Co., Ltd., dated 2026)

Key:
[1] = molecular target: T1, human ROR1 on stably transfected cells (NCI-H1993-ROR1, MDA-MB-468-ROR1, NCI-H1975-ROR1, 293T-ROR1-NF-kB) (human, UniProt Q01973 30-937); assay: cell-based or functional assay
[2] = molecular target: T1, human ROR1 on stably transfected cells …; assay: cell-based or functional assay; remark: listed apart in the source
[3] = molecular target: T2, ROR1 naturally expressed on human tumor cell lines (A549, Jeko-1, SW620, PA-1) (human, UniProt Q01973 30-937); assay: cell-based or functional assay
T2 sequence (Q01973 30-937): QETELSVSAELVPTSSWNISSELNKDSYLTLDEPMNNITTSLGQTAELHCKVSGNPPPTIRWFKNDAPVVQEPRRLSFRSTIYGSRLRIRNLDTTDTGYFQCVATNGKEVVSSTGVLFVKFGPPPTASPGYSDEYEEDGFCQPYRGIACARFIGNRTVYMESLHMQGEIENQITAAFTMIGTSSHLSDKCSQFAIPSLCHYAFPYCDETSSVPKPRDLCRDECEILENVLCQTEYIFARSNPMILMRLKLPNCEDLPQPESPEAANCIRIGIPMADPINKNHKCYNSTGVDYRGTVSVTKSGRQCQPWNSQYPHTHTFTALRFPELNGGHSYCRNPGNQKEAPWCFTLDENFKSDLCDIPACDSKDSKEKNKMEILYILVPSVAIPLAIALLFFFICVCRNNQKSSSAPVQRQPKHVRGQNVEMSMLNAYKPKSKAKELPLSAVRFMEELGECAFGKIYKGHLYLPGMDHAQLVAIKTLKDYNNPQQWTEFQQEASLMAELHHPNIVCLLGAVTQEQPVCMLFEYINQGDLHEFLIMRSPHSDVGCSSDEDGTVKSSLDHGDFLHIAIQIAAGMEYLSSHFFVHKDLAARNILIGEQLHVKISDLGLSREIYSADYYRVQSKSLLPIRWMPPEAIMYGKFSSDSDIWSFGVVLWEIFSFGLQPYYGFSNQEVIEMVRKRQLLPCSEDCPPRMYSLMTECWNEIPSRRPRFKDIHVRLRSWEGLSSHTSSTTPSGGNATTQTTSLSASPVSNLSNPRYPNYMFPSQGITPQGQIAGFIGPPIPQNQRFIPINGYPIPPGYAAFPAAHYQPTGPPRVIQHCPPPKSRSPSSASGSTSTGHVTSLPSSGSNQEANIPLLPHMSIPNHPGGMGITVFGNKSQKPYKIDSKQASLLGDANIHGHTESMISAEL

[4] = molecular target: T2, ROR1 naturally expressed on human tumor …; assay: FACS on PA-1 cells naturally expressing ROR1
[5] = molecular target: T2, ROR1 naturally expressed on human tumor …; assay: FACS on SW620 cells naturally expressing ROR1
[6] = molecular target: T2, ROR1 naturally expressed on human tumor …; assay: FACS on Jeko-1 cells naturally expressing ROR1
[7] = molecular target: T3, human/cynomolgus monkey ROR1 protein (Acro Biosystems, Cat. No.: RO1-H522y) (human/cynomolgus monkey, UniProt Q01973 30-403); assay: SPR (Biacore), antibody captured on anti-hIgG CM5 chip, ROR1 protein as analyte, method of Example 5
T3 construct: Bought SPR analyte
T3 sequence (Q01973 30-403 limits assumed): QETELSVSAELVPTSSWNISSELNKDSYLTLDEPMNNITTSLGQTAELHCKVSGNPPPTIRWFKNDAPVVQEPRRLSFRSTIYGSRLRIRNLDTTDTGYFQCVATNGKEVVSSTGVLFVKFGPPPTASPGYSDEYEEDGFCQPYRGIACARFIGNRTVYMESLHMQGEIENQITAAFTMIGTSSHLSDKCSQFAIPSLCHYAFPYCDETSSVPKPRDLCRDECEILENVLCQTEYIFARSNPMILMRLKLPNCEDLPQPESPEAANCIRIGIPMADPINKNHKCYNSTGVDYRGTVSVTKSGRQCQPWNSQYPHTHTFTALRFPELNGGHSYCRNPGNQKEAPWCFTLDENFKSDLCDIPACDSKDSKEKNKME

[8] = molecular target: T2, ROR1 naturally expressed on human tumor …; assay: FACS on PA-1 cells naturally expressing ROR1; remark: listed apart in the source
[9] = molecular target: T2, ROR1 naturally expressed on human tumor …; assay: FACS on SW620 cells naturally expressing ROR1; remark: listed apart in the source
[10] = molecular target: T2, ROR1 naturally expressed on human tumor …; assay: FACS on Jeko-1 cells naturally expressing ROR1; remark: listed apart in the source
[11] = molecular target: T2, ROR1 naturally expressed on human tumor …; assay: FACS on PA-1 cells naturally expressing ROR1; remark: listed apart in the source
[12] = molecular target: T2, ROR1 naturally expressed on human tumor …; assay: FACS on SW620 cells naturally expressing ROR1; remark: listed apart in the source
[13] = molecular target: T2, ROR1 naturally expressed on human tumor …; assay: FACS on Jeko-1 cells naturally expressing ROR1; remark: listed apart in the source
[14] = molecular target: T2, ROR1 naturally expressed on human tumor …; assay: FACS on A549 cells naturally expressing ROR1
[15] = molecular target: T2, ROR1 naturally expressed on human tumor …; assay: FACS on SW620 cells naturally expressing ROR1; remark: listed apart in the source
[16] = molecular target: T2, ROR1 naturally expressed on human tumor …; assay: FACS on Jeko-1 cells naturally expressing ROR1; remark: listed apart in the source
[17] = molecular target: T3, human/cynomolgus monkey ROR1 protein …; assay: SPR (Biacore), antibody captured on anti-hIgG CM5 chip, ROR1 protein as analyte, 1:1 model

T1 sequence (Q01973 30-937 limits assumed): as the sequence (Q01973 30-937) above

Internalization EC50 (nM), MDA-MB-468-ROR1 cells, pH-dependent endocytosis reagent, FACS [1] [nM] | Internalization EC50 (nM), NCI-H1993-ROR1 cells, pH-dependent endocytosis reagent, FACS [1] [nM] | Internalization EC50 (nM), NCI-H1975-ROR1 cells, pH-dependent endocytosis reagent, FACS [2] [nM] | ADCC reporter gene assay EC50 (nM), PA-1 target cells, recombinant Jurkat effector cells [3] [nM] | EC50 [4] [nM] | Top (MFI) [4] [MFI] | EC50 [5] [nM] | Top (MFI) [5] [MFI] | EC50 [6] [nM] | Top (MFI) [6] [MFI] | Kd [7] [nM] | koff [7] [s⁻¹] | kon [7] [M⁻¹ s⁻¹] | EC50 [8] [nM] | Top (MFI) [8] [MFI] | EC50 [9] [nM] | Top (MFI) [9] [MFI] | EC50 [10] [nM] | Top (MFI) [10] [MFI] | EC50 [11] [nM] | Binder | also measured
1.44 | 1.24 | 12.4 | 0.04 | 0.053 | 227000 | 0.009 | 29500 | 0.01 | 88000 | 0.289 | 0.000792 | 2.74e+06 | – | – | – | – | – | – | – | hz137G11D10-2.1 (antibody, human IgG1, kappa, V domains shown, Humanized, human IgG1/kappa) VH: QVQLQESGPGLVKPSQTLSLTCTVSGYSITSDYAWNWIRQHPGKGLEWIGYITYSASTSYNPSLKSRVTISRDTSKNQFSLKLSSVTAADTAVYYCARGAGTYYFDYWGQGTLVTVSS VL: DIQMTQSPSSLSASVGDRVTITCITSTDIDEDMNWYQQKPGKAPKLLIYEDNSLRPGVPSRFSGSGYGTDFTLTISSLQPEDFATYYCLQTNNLPLTFGQGTKVEIKR | –
0.92 | 1.18 | 5.19 | 0.06 | – | – | – | – | – | – | 0.197 | 0.000354 | 1.79e+06 | 0.087 | 244000 | 0.01 | 30700 | 0.012 | 89000 | – | hz29H5D8-3.2 (antibody, human IgG1, kappa, V domains shown, Humanized, human IgG1/kappa) VH: QVQLVQSGAEVKKPGSSVKVSCKASGYTFTNYGISWVRQAPGQGLEWMGEIYPRSVNTYYSAKFKGRVTITADKSTSTAYMELSSLRSEDTAVYYCARHYYGSSLDYWGQGTLVTVSS VL: DIQMTQSPSSLSASVGDRVTITCITSSDIEDDMNWYQQKPGKAPKLLISEGNSLRPGVPSRFSSSGYGTDFTFTISSLQPEDIATYYCLQSDNIFTFGQGTKVEIKR | –
1.39 | 1.16 | 14.9 | 0.13 | – | – | – | – | – | – | 0.527 | 0.00051 | 968000 | – | – | – | – | – | – | 0.166 | hz135A2B10-1.1 (antibody, human IgG1, kappa, V domains shown, Humanized, human IgG1/kappa) VH: QVQLVESGGGLVQPGGSLRLSCAASGFAFSTYGMAWVRQAPGKGLEWVASIHKGGFSTYYPDNVKGRFTISRDNAKNSLYLQMNSLRAEDTAVYYCARHDWDGAMDYWGQGTLVTVSS VL: DIQMTQSPSSLSASVGDRVTITCKASQDINSYLNWYQQKPGKAPKTLIYRANRLVDGVPSRFSGSGSGQDYTLTISSLQPEDFATYYCLQFDEFPYTFGQGTKVEIKR | Top (MFI) [11]: 250000 MFI; EC50 [12]: 0.022 nM; Top (MFI) [12]: 30300 MFI; EC50 [13]: 0.015 nM; Top (MFI) [13]: 88300 MFI
2.15 | 2.06 | 17.7 | 0.27 | 0.127 | 232000 | 0.025 | 26500 | 0.019 | 83200 | 1.17 | 0.0018 | 1.54e+06 | 0.173 | 235000 | 0.025 | 26500 | 0.021 | 91700 | 0.127 | UC-961 (antibody, V domains shown) VH: QVQLQESGPGLVKPSQTLSLTCTVSGYAFTAYNIHWVRQAPGQGLEWMGSFDPYDGGSSYNQKFKDRLTISKDTSKNQVVLTMTNMDPVDTATYYCARGWYYFDYWGHGTLVTVSS VL: DIVMTQTPLSLPVTPGEPASISCRASKSISKYLAWYQQKPGQAPRLLIYSGSTLQSGIPPRFSGSGYGTDFTLTINNIESEDAAYYFCQQHDESPYTFGEGTKVEIK | EC50 [14]: 0.035 nM; Top (MFI) [14]: 75700 MFI; Top (MFI) [11]: 232000 MFI; EC50 [15]: 0.024 nM; Top (MFI) [15]: 23900 MFI; EC50 [12]: 0.025 nM; Top (MFI) [12]: 26500 MFI; EC50 [16]: 0.019 nM; Top (MFI) [16]: 66100 MFI; EC50 [13]: 0.019 nM; Top (MFI) [13]: 83200 MFI; Kd [17]: 20.6 nM; koff [17]: 0.0273 s⁻¹; kon [17]: 1.33e+06 M⁻¹ s⁻¹
